Test results from patent US8629107B2, “Genes and proteins associated with angiogenesis and uses thereof” (National Jewish Health, priority 2005, dated 2014).

B1: lumican: SLRP family secreted proteoglycan stably expressed in MB114 cells by retroviral transduction (protein, UniProt P51885 19-338, looked up)
Lumican: QYYDYDIPLFMYGQISPNCAPECNCPHSYPTAMYCDDLKLKSVPMVPPGIKYLYLRNNQIDHIDEKAFENVTDLQWLILDHNLLENSKIKGKVFSKLKQLKKLHINYNNLTESVGPLPKSLQDLQLTNNKISKLGSFDGLVNLTFIYLQHNQLKEDAVSASLKGLKSLEYLDLSFNQMSKLPAGLPTSLLTLYLDNNKISNIPDEYFKRFTGLQYLRLSHNELADSGVPGNSFNISSLLELDLSYNKLKSIPTVNENLENYYLEVNELEKFDVKSFCKILGPLSYSKIKHLRLDGNPLTQSSLPPDMYECLRVANEITVN
B2: SMOC-2: secretory protein stably expressed in MB114 cells by retroviral transduction (protein, UniProt Q8CD91 22-447, looked up)
SPARC-related modular …: QKFSALTFLRVDQDKDRDCSLDCPSSPQKPLCASDGRTFLSRCEFQRAKCKDPQLEIAHRGNCKDVSRCVAERKYTQEQARKEFQQVFIPECNDDGTYSQVQCHSYTGYCWCVTPNGRPISGTAVAHKTPRCPGSINEKVPQREGAGKADDAAAPALETQPQGDEEDIASRYPTLWTEQVKSRQNKTNKNSASSCDQEHQSALEEAKQPKNDNVVIPECAHGGLYKPVQCHPSTGYCWCVLVDTGRPIPGTSTRYEQPKCDNTARAHPAKARDLYKNRPLQGCPGAKKHEFLTSVLDALSTDMVHAVSDPSSSSGRLSEPDPSHTLEERVVHWYFKLLDKNSSGDIGKKEIKPFKRFLRKKSKPKKCVKKFVEYCDMNNDKSITVQELMGCLGVTREEGKANTRKRHTPRGNAESSSSNRQPRKQG

How the values were obtained:
[1] = test system: vessel formation and infiltration into Matrigel plugs; test: Matrigel plug implantation assay; type: in vivo, C57BL/6 mice
Procedure: The effect of MAGP-2 on vessel formation and infiltration into Matrigel plugs implanted into genetically normal mice was determined as described (Albig et al, 2006). Briefly, phenol red-free Matrigel (BD biosciences, Bedford, Mass.) was mixed with PBS (diluent), bFGF (50 or 300 ng/ml; R&D Systems, Minneapolis, Minn.), or recombinant MAGP-2 (1 μg/ml) together with bFGF (50 ng/ml), and the resulting mixtures were injected twice subcutaneously in the ventral groin area (400 μl/injection) of C57BL/6 mice. The mice were sacrificed 10 days post-implantation and the Matrigel plugs were dissected, fixed overnight in 10% formalin, and sectioned in the National Jewish Histology Laboratory. Afterward, Masson's trichrome staining was performed to visualize infiltrating vessels, which were quantified under a light microscope by determining the average number of vessels present in 5 random fields (200× magnification). Only those fields that contained at least one vessel in the area underlying the skin were tallied. Two mice were used per experimental condition and this experiment was performed three times in its entirety. All animal studies were performed according to protocol procedures approved by the Animal Care and Use Committee at National Jewish Medical and Research Center.
The inventors tested this hypothesis by utilizing the Matrigel plug implantation assay, which monitors the ability of various angiogenic agents to alter vessel formation and infiltration into Matrigel plugs implanted subcutaneously into normal mice. […] MAGP-2 purity was monitored by coomassie staining, and by immunoblotting with anti-FLAG M2 monoclonal antibodies (FIG. 2A; right panel). rMAGP-2 (1 μg/ml) stimulated angiogenic sprouting of quiescent MB114 cell monolayers (FIG. 2A; left panel). […] Afterward, the Matrigel plugs were fixed, sectioned, and stained with Masson's trichrome to visualize infiltrating blood vessels (FIG. 2B; right panels; arrows denote blood vessels), which were quantified by manual counting under a light microscope. […]

p38 MAPK = p38 MAPK phosphorylation by immunoblot analyses; type: cell-based, murine; conditions: serum-starved MB114 cells expressing the transgene; bFGF 50 ng/ml or EGF 10 ng/ml, 0-15 min
Procedure: (§1) The effect putative angiogenic agents had on MB114 cell activities were determined as follows: (i) cell proliferation using a [^3H]thymidine incorporation assay as described (Albig et al, 2006; Albig and Schiemann, 2004; Albig and Schiemann, 2005); (ii) cell invasion through Matrigel matrices using a modified Boyden-chamber assay as described (Albig et al, 2006; Albig and Schiemann, 2004; Albig and Schiemann, 2005); (iii) p38 MAPK phosphorylation using immunoblot analyses as described (Albig et al, 2006; Albig and Schiemann, 2004; Albig and Schiemann, 2005); (iv) angiogenic sprouting in rat tail collagen matrices as described (Albig et al, 2006; Albig and Schiemann, 2004); and (v) Hes1- and SBE-driven luciferase reporter gene assays as described (Albig et al, 2006; Albig and Schiemann, 2004; Albig and Schiemann, 2005).
The inventors' previous studies have associated stimulation of p38 MAPK activity with angiogenesis of MB114 cells and, conversely, inhibition of p38 MAPK activity with angiostasis of MB114 cells (Albig et al, 2006; Albig and Schiemann, 2004; Albig and Schiemann, 2005). […] The phosphorylation status of p38 MAPK was determined by immunoblotting whole cell lysates with phospho-specific p38 MAPK antibodies (p38-P). Differences in protein loading were monitored by reprobing stripped membranes with anti-p38 MAPK polyclonal antibodies (p38).

MB114 cells [2] = test: angiogenic sprouting in rat tail collagen matrices; type: cell-based, murine; conditions: MB114 cells stably expressing the transgene vs GFP; 10% FBS, 5 days
Procedure: as §1
Finally, it was determined whether expression of these putative angiogenic factors could effect the angiogenic sprouting of quiescent MB114 cells monolayers. MB114 cells expressing either GFP or various putative angiogenic agents were grown to confluency, and subsequently were overlaid with rat tail collagen matrices. Angiogenic sprouting by quiescent EC monolayers was stimulated by inclusion of 10% FBS and allowed to proceed for 5 days. The quantity of invading angiogenic sprouts was determined by manual counting under a light microscope.
Based on the findings described in the Examples above, the inventors hypothesized that MAGP-2 promotes angiogenesis by antagonizing Notch1 signaling. To test this hypothesis, it was first determined whether inhibiting Notch signaling in MB114 cells would enhance their angiogenic sprouting. In doing so, MB114 cells were transiently transfected with the Hes1-luciferase reporter gene (and pCMV-β-gal cDNA as control), and subsequently were treated overnight with or without the highly specific gamma-secretase inhibitor, DAPT (Sastre et al, 2001), which inhibits S3-mediated cleavage of Notch1 and, consequently, NICD-mediated induction of Hes1 expression. Afterward, luciferase and β-gal activities were determined. […] In this experiment, quiescent MB114 cell monolayers were overlaid with rat tail collagen matrices, and were induced to form angiogenic sprouts by addition of 10% FBS supplemented with or without DAPT (10 μM). Five days later the number of invading angiogenic spouts were quantified by manual counting on a light microscope. Based on these findings, the inventors conclude that Notch activation functions in mediating angiostasis in MB114 cells. […] Collectively, these findings indicate that Notch1 signaling antagonizes angiogenic sprouting in MB114 cells, and that downregulation of Notch1 signaling components is necessary for angiogenesis activation in MB114 cells.
Having shown that Notch1 signaling mediates angiostasis in MB114 cells, the inventors next asked whether MAGP-2 promotes angiogenesis in MB114 cells via its ability to antagonize Notch signaling. To do so, MAGP-2-expressing MB114 cells were engineered to constitutively express active Notch1 NICD fragment in an attempt to overcome the block of Notch processing mediated by MAGP-2. More particularly, GFP-, MAGP-2-, and MAGP-2/N1ICD-expressing MB114 cells were transiently transfected with pHes1-luciferase and pCMV-β-gal cDNAs. Luciferase and β-gal activities were determined 48 h post-transfection. As the inventors observed previously, MAGP-2 expression reduced Hes1-luciferase activity in MB114 cells (FIG. 5C), a reaction that was bypassed by co-expression of NICD in these cells (FIG. 5C). […] In this experiment, quiescent monolayers of GFP-, MAGP-2-, and MAGP-2/N1ICD-expressing MB114 cells were overlaid with rat tail collagen matrices and incubated in the absence or presence of 10% FBS for 5 days. Afterward, the number of invading angiogenic sprouts were determined by manual counting under a light microscope.

MB114 cells [3] = test: cell proliferation, [3H]thymidine incorporation assay; type: cell-based, murine
Procedure: as §1
(§2) FIG. 1A show results from an experiment in which serum-starved MB114 cells, stably expressing either GFP or various putative angiogenic agents, were stimulated in the absence or presence of either bFGF (50 ng/ml) or EGF (10 ng/ml) for 24 h at 37° C. Differences in MB114 cell DNA synthesis was determined by measuring [^3H]thymidine incorporation into cellular DNA. […] In this experiment, invasion of MB114 cells expressing either GFP or various putative angiogenic agents through synthetic basement membranes was determined over 48 h using a modified Boyden-chamber assay.

MCA102 fibrosarcomas = MCA102 fibrosarcomas produced in mice; type: in vivo
MB114 cells [4] = test: cell invasion through Matrigel matrices, modified Boyden-chamber assay; type: cell-based, murine; conditions: MB114 cells stably expressing the transgene vs GFP; 48 h
Procedure: as §1, §2

Row | Molecule | vascularization of implanted Matrigel plugs ([1]; 50 or 300 ng/ml in Matrigel vs diluent, subcutaneous, C57BL/6 mice, day 10) | p38 MAPK phosphorylation (p38 MAPK) | angiogenic sprouting of quiescent MB114 cell monolayers (MB114 cells [2]) | development and infiltration of vessels in Matrigel plugs implanted into mice ([1]; unpublished observations) | MB114 cell proliferation (MB114 cells [3]; transgene expression in MB114 cells, data not shown) | growth of MCA102 fibrosarcomas produced in mice (MCA102 fibrosarcomas; unpublished observation) | blood vessel density of MCA102 fibrosarcomas produced in mice (MCA102 fibrosarcomas; unpublished observations) | proliferative response of MB114 cells to bFGF ([3H]thymidine incorporation into cellular DNA) (MB114 cells [3]; serum-starved MB114 cells stably expressing the transgene vs GFP, bFGF 50 ng/ml, 24 h, 37° C.) | MB114 cell invasion through synthetic basement membranes (MB114 cells [4])
1 | bFGF: growth factor (R&D Systems) mixed into Matrigel at 50 or 300 ng/ml [reference compound] | dose-dependently stimulated |  |  |  |  |  |  |  | 
2 | B1 |  | significantly inhibited | significantly decreased | antagonizes | inhibit | decreases | decreases |  | 
3 | B2 |  |  | significantly increased |  |  |  |  | significantly enhanced | significantly induced
